This test deals with Pangolin CoV S2-37 (Pangolin CoV).

B1: Antibody SC45 Fab (Fab, V domains shown)
VH: QVQLQESGPGLVKSSETLSLTCTVSGGSISSYYWSWIRQPPGKGLEWIGCIYSSGSTNYNPSLKSRVTISVDSSKNQFSLRLNSVTAADTAVYYCARHKGTDFWSGYSFTPRGGWFDPWGQGALVSVSS
VL: DIQMTQSPSSLSASVGDRVTITCRASQSISSYLNWYQQKPGKAPKLLIYGASNLQSGVPSRFSGSGSETDFTLTISSLQPEDFASYYCQQSHSIPVTFGQGTKLEIK
For B1, the koff is 0.000923 s⁻¹ and the kon was determined as 32100 M⁻¹ s⁻¹.

What is called koff is a measure of how fast the partners let go of each other. Low readings indicate a long-lived complex, high ones a short-lived complex. As usually defined, the kon is the rate constant with which the complex forms. A higher kon goes with fast association.

(Values after patent US20250145691A1.)
